For 51 molecules, Kd results are on record in article PMC9352680, “A comprehensive thermodynamic model for RNA binding by the Saccharomyces cerevisiae Pumilio protein PUF4”.

Changes are numbered by the printed parent chain. Numbers in names are those of the source.

T1: PUF4 RNA-binding domain (Saccharomyces cerevisiae, UniProt P25339 537-888)
T1 sequence: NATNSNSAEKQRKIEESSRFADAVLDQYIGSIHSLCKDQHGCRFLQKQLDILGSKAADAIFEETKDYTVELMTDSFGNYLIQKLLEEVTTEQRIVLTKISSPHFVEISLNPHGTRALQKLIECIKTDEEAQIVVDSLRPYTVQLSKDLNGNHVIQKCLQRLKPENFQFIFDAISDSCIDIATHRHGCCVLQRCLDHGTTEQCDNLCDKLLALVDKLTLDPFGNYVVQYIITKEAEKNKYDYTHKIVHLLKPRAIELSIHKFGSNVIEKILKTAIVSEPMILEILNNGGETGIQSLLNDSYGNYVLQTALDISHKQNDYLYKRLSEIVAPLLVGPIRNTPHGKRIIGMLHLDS

B1: Ie_S4_P3E.2_K3.1_C3.2_[+-2T]_H3.1_A3.1_F3.1_T3.2 (ssRNA)
RNA: UUUGACAACUGAUCGUUCUUUCUCUUUGUAUAUAUAUUCUUUCUCGAUCAGUUGUCUUU
B2: Ie_S4_P3E.2_K3.1_C3.2_[+-1C]_H3.1_A3.1_F3.1_T3.2 (ssRNA)
RNA: B1 RNA with U26C
B3: Ie_S4_P3E.2_K3.1_C3.2_[+-2CCC]_H3.1_A3.1_F3.1_T3.2 (ssRNA)
RNA: UUUGACAACUGAUCGUUCUUUCUCCCCUUGUAUAUAUAUUCUUUCUCGAUCAGUUGUCUUU
B4: Ie_S4_P3E.2_K3.1_C3.2_[+-1CCC]_H3.1_A3.1_F3.1_T3.2 (ssRNA)
RNA: B3 RNA with C25U, U28C
B5: Ie_S4_P3E.2_K3.1_C3.2_[+-1CTT]_H3.1_A3.1_F3.1_T3.2 (ssRNA)
RNA: B3 RNA with C25U, C27U
B6: Ie_S4_P3E.2_K3.1_C3.2_[+-1TTT]_H3.1_A3.1_F3.1_T3.2 (ssRNA)
RNA: B3 RNA with C25U, C26U, C27U
B7: Ie_S4_P3E.2_K3.1_C3.2_[+-1CCT]_H3.1_A3.1_F3.1_T3.2 (ssRNA)
RNA: B3 RNA with C25U
B8: Ie_S4_P3E.2_K3.1_C3.2_H3.1_[+1TCC]_A3.1_F3.1_T3.2 (ssRNA)
RNA: B3 RNA with C25U, C26U, C27U, U28C, U29C
B9: Ie_S4_P3E.2_K3.1_C3.2_H3.1_[+1CCT]_A3.1_F3.1_T3.2 (ssRNA)
RNA: B3 RNA with C25U, C26U, U28C
B10: Ie_S4_P3E.2_K3.1_C3.2_[+-1CT]_H3.1_A3.1_F3.1_T3.2 (ssRNA)
RNA: UUUGACAACUGAUCGUUCUUUCUCUCUUGUAUAUAUAUUCUUUCUCGAUCAGUUGUCUUU
B11: Ie_S4_P3E.2_K3.1_C3.2_[+-1TC]_H3.1_A3.1_F3.1_T3.2 (ssRNA)
RNA: B10 RNA with C26U, U27C
B12: Ie_S4_P3E.2_K3.1_C3.2_H3.1_[+1TC]_A3.1_F3.1_T3.2 (ssRNA)
RNA: B10 RNA with C26U, U28C
B13: Ie_S4_P3E.2_K3.1_C3.2_[+-1TT]_H3.1_A3.1_F3.1_T3.2 (ssRNA)
RNA: B10 RNA with C26U
B14: Ie_S4_P3E.2_K3.1_C3.2_[+-2CCCTT]_H3.1_A3.1_F3.1_T3.2 (ssRNA)
RNA: UUUGACAACUGAUCGUUCUUUCUCCCCUUUUGUAUAUAUAUUCUUUCUCGAUCAGUUGUCUUU
B15: Ie_S4_P3E.2_K3.1_C3.2_[+-1CTCTC]_H3.1_A3.1_F3.1_T3.2 (ssRNA)
RNA: B14 RNA with C25U, C27U, U28C, U30C
B16: Ie_S4_P3E.2_K3.1_C3.2_[+-2TTCC]_H3.1_A3.1_F3.1_T3.2 (ssRNA)
RNA: UUUGACAACUGAUCGUUCUUUCUCUUCCUUGUAUAUAUAUUCUUUCUCGAUCAGUUGUCUUU
B17: Ie_S4_P3E.2_K3.1_C3.2_[+-1CCCT]_H3.1_A3.1_F3.1_T3.2 (ssRNA)
RNA: B16 RNA with U26C
B18: Ie_S4_P3E.2_K3.1_C3.2_[+-1CCTC]_H3.1_A3.1_F3.1_T3.2 (ssRNA)
RNA: B16 RNA with U26C, C28U, U29C
B19: Ib_S2_P3E.1_K3.1_C3.1_H3.1_[T1A]_A3.1_[T5C]_F3.1_T3.1 (ssRNA)
RNA: UUUGAUUAAUAUGAUAUCGUUCUUUCUAGUACAUAUUCUUUCUCGAUAUCAUAUUAAUCUUU
B20: Ic_S2_P3E.1_K3.1_C3.1_H3.1_A3.1_[T5A]_F3.1_T3.1 (ssRNA)
RNA: B19 RNA with A28U, C32A
B21: Ib_S2_P3E.1_K3.1_C3.1_H3.1_[T1G]_A3.1_[A6T]_F3.1_T3.1 (ssRNA)
RNA: B19 RNA with A28G, C32U, A33U
B22: Ib_S2_P3E.1_K3.1_C3.1_H3.1_[T1G]_A3.1_[A6G]_F3.1_T3.1 (ssRNA)
RNA: B19 RNA with A28G, C32U, A33G
B23: Ib_S2_P3E.1_K3.1_C3.1_H3.1_[T1C]_A3.1_[A6G]_F3.1_T3.1 (ssRNA)
RNA: B19 RNA with A28C, C32U, A33G
B24: Ib_S2_P3E.1_K3.1_C3.1_H3.1_[T1A]_A3.1_[A6G]_F3.1_T3.1 (ssRNA)
RNA: B19 RNA with C32U, A33G

The data set concerns the target T1, PUF4 RNA-binding domain. As to the kind of experiment: Mg; RNA-MaP; 20 mM Na-HEPES pH 7.4, 30 mM KOAc, 0.75 mM MgCl2, 0.1% Tween-20, 5% glycerol, 0.1 mg/mL BSA, 2 mM DTT; 25 C; 0.0125-409.6 nM protein. Conditions: tags: N-His6-TEV cleaved; C-SNAP kept, Cy3B-labelled; label: tethered on chip by stalled RNA polymerase.
The molecule ACAAACUGUAUUACCUUUAACAAAC (ssRNA) [Ie_S3_P5E.1_K5.1_C5.1_H5.1_A5.1_[+7CCT]_F5.1_T5.1] displayed a Kd of 221 nM. Take ACAAACUGUCUCUAUUAUUAACAAAC (ssRNA) [Ie_S3_P5E.1_K5.1_C5.1_H5.1_[+3CTCT]_A5.1_F5.1_T5.1]: binding was put at a Kd of 366 nM.

Regarding B1, the affinity, expressed as Kd, was 0.987 nM.

As for B2, binding was put at a Kd of 1.07 nM.

The molecule ACAAACUGUAUUCCCAUUAACAAAC (ssRNA) [Ie_S3_P5E.1_K5.1_C5.1_H5.1_A5.1_[+6CCC]_F5.1_T5.1] came in with an equilibrium dissociation constant (Kd) of 203 nM.

ACAAACUGUAUUAUUCUCAACAAAC (ssRNA) [Ie_S3_P5E.1_K5.1_C5.1_H5.1_A5.1_F5.1_[+9CTC]_T5.1] had a Kd of 23 nM.

On to B3, for which binding was put at a Kd of 0.858 nM. Consider B4, for which binding was put at a Kd of 0.986 nM. As for B5, binding was put at a Kd of 1.24 nM.

For the molecule B6, the affinity, expressed as Kd, was 1.03 nM. To B7 belongs 0.625 nM; to B8, 25.7 nM; to B9, 1.07 nM. As for B10, binding was put at a Kd of 0.942 nM.

In turn, B11 registered a Kd of 0.769 nM.

Molecule B12 yielded a dissociation constant (Kd) of 50.6 nM. For the molecule B13, the Kd was found to be 1.2 nM.

In the case of B14, the equilibrium dissociation constant (Kd) amounted to 0.884 nM. Regarding B15, the Kd worked out at 0.676 nM. Molecule ACAAACUGUAUUAUUUUCAACAAAC (ssRNA) [Ie_S3_P5E.1_K5.1_C5.1_H5.1_A5.1_F5.1_[+9TTC]_T5.1] gave a dissociation constant (Kd) of 19.8 nM.

Molecule ACAAACUGUACCUCUUUAUUAACAAAC (ssRNA) [Ie_S3_P5E.1_K5.1_C5.1_H5.1_[+4CCTCT]_A5.1_F5.1_T5.1] came in with a Kd of 52.5 nM.

As for ACAAACUGUAUUAUUCCUAACAAAC (ssRNA) [Ie_S3_P5E.1_K5.1_C5.1_H5.1_A5.1_F5.1_[+9CCT]_T5.1], the dissociation constant (Kd) was 19.9 nM.

In turn, ACAAACUGUACCCUUUUAUUAACAAAC (ssRNA) [Ie_S3_P5E.1_K5.1_C5.1_H5.1_[+4CCCTT]_A5.1_F5.1_T5.1] registered a dissociation constant (Kd) of 30.4 nM. Take ACAAACUGUAUUAUUCCCAACAAAC (ssRNA) [Ie_S3_P5E.1_K5.1_C5.1_H5.1_A5.1_F5.1_[+9CCC]_T5.1]: the dissociation constant Kd worked out at 18.1 nM. Take ACAAACUGUAUCCCUUUAUUAACAAAC (ssRNA) [Ie_S3_P5E.1_K5.1_C5.1_H5.1_A5.1_[+5CCCTT]_F5.1_T5.1]: the affinity, expressed as Kd, was 92.6 nM.

Consider ACAAACUGUAUUAUUUCUCAACAAAC (ssRNA) [Ie_S3_P5E.1_K5.1_C5.1_H5.1_A5.1_F5.1_[+9TCTC]_T5.1], for which the equilibrium dissociation constant (Kd) was 19.4 nM. In turn, ACAAACUGUAUUUCUCUAUUAACAAAC (ssRNA) [Ie_S3_P5E.1_K5.1_C5.1_H5.1_A5.1_[+6TCTCT]_F5.1_T5.1] came in with a dissociation constant Kd of 38.4 nM.

Molecule ACAAACUGUAUUACCCUUAACAAAC (ssRNA) [Ie_S3_P5E.1_K5.1_C5.1_H5.1_A5.1_[+7CCC]_F5.1_T5.1] displayed a dissociation constant Kd of 510 nM.

With ACAAACUGUCCCUUAUUAUUAACAAAC (ssRNA) [Ie_S3_P5E.1_K5.1_C5.1_H5.1_[+3CCCTT]_A5.1_F5.1_T5.1], the dissociation constant (Kd) came to 698 nM.

As to ACAAACUGUAUUUCUAUUAACAAAC (ssRNA) [Ie_S3_P5E.1_K5.1_C5.1_H5.1_A5.1_[+6TCT]_F5.1_T5.1], the Kd is 7.3 nM. For the molecule ACAAACUGUAUCUCUCUAUUAACAAAC (ssRNA) [Ie_S3_P5E.1_K5.1_C5.1_H5.1_A5.1_[+5CTCTC]_F5.1_T5.1], binding was put at a Kd of 30.4 nM. ACAAACUGUAUUAUUAUCCACAAAC (ssRNA) [Ie_S3_P5E.1_K5.1_C5.1_H5.1_A5.1_F5.1_[+10TCC]_T5.1] had a Kd of 5.94 nM.

B16 had an equilibrium dissociation constant (Kd) of 1.01 nM. In the case of B17, the affinity, expressed as Kd, was 0.775 nM.

B18 showed a dissociation constant Kd of 1.06 nM. Turning to ACAAACUGUAUUAUCUCUCUAACAAAC (ssRNA) [Ie_S3_P5E.1_K5.1_C5.1_H5.1_A5.1_F5.1_[+8CTCTC]_T5.1], the dissociation constant (Kd) amounted to 29.1 nM.

ACAAACUGUAUUAUUCCUCUAACAAAC (ssRNA) [Ie_S3_P5E.1_K5.1_C5.1_H5.1_A5.1_F5.1_[+9CCTCT]_T5.1]: binding was characterised by a dissociation constant (Kd) of 20.7 nM. For the molecule ACAAACUGUAUUACUCUCUUAACAAAC (ssRNA) [Ie_S3_P5E.1_K5.1_C5.1_H5.1_A5.1_[+7CTCTC]_F5.1_T5.1], binding was put at a Kd of 128 nM. As to ACAAACUGUACCUCUUAUUAACAAAC (ssRNA) [Ie_S3_P5E.1_K5.1_C5.1_H5.1_[+4CCTC]_A5.1_F5.1_T5.1], the Kd was determined as 27.2 nM.

ACAAACUGUACUCUUAUUAACAAAC (ssRNA) [Ie_S3_P5E.1_K5.1_C5.1_H5.1_[+4CTC]_A5.1_F5.1_T5.1] showed a Kd of 7.73 nM. The molecule ACAAACUGUAUUAUUUCUAACAAAC (ssRNA) [Ie_S3_P5E.1_K5.1_C5.1_H5.1_A5.1_F5.1_[+8TTC]_T5.1] returned a dissociation constant (Kd) of 19.1 nM. To ACAAACUGUCUCUUAUUAUUAACAAAC (ssRNA) [Ie_S3_P5E.1_K5.1_C5.1_H5.1_[+2TCTCT]_A5.1_F5.1_T5.1] belongs 513 nM. ACAAACUGUAUUACUUUUAACAAAC (ssRNA) [Ie_S3_P5E.1_K5.1_C5.1_H5.1_A5.1_[+7CTT]_F5.1_T5.1] showed a dissociation constant Kd of 115 nM. Take B19: the equilibrium dissociation constant (Kd) is > 2300 nM.

Molecule B20 came in with a Kd of 14.9 nM. As for B21, the Kd is > 2300 nM. Molecule B22 showed a Kd of 277 nM. In turn, B23 displayed a Kd of 75.7 nM.

The molecule B24 came in with a Kd of 257 nM. Molecule ACAAACUGUAUUAUCCCUAACAAAC (ssRNA) [Ie_S3_P5E.1_K5.1_C5.1_H5.1_A5.1_F5.1_[+8CCC]_T5.1] yielded a dissociation constant (Kd) of 37.5 nM. To ACAAACUGUAUUAUUUCCUAACAAAC (ssRNA) [Ie_S3_P5E.1_K5.1_C5.1_H5.1_A5.1_F5.1_[+8TTCC]_T5.1] belongs 21.6 nM.

What is called Kd is the equilibrium constant for the complex coming apart.
